Values joined by “and” are separate entries in the source; they are usually repeats but may differ in a detail not shown here. Equal entries are not always repeated.
Experiments:
SEC-SAXS = target: the molecule itself; assay: SEC-SAXS
non-reducing SDS-PAGE = target: the molecule itself; assay: non-reducing SDS-PAGE
cross-linking = target: the molecule itself; assay: cross-linking
SEC [1] = target: the molecule itself; assay: SEC
SEC [2] = target: the molecule itself; assay: SEC; remark: listed apart in the source

| Protein | stoichiometry N (SEC-SAXS) | stoichiometry N (non-reducing SDS-PAGE) | stoichiometry N (cross-linking) | stoichiometry N (SEC [1]) | binding result (SEC [2]) |
| --- | --- | --- | --- | --- | --- |
| mouse myocilin leucine zipper construct mLZ_(93-171) (domain or fragment, UniProt O70624 93-171, looked up) VTGTQEAQEGLQGQLGALRRERDQLETQTRDLEAAYNNLLRDKSALEEEKRQLEQENEDLARRLESSSEEVTRLRRGQC | 2.2 | – | – | – | – |
| myocilin coiled-coil construct CC_(69-185) (domain or fragment, human, UniProt Q99972 69-185, looked up) SVIHNLQRDSSTQRLDLEATKARLSSLESLLHQLTLDQAARPQETQEGLQRELGTLRRERDQLETQTRELETAYSNLLRDKSVLEEEKKRLRQENENLARRLESSSQEVARLRRGQC | 3.6 | 2 | 4 | – | – |
| myocilin construct CC_(33-111) (domain or fragment, human, UniProt Q99972 33-111, looked up) RTAQLRKANDQSGRCQYTFSVASPNESSCPEQSQAMSVIHNLQRDSSTQRLDLEATKARLSSLESLLHQLTLDQAARPQ | 2.8 | – | 2 | 4 | – |
| myocilin coiled-coil construct CC_(60-185) (domain or fragment, human, UniProt Q99972 60-185, looked up) SCPEQSQAMSVIHNLQRDSSTQRLDLEATKARLSSLESLLHQLTLDQAARPQETQEGLQRELGTLRRERDQLETQTRELETAYSNLLRDKSVLEEEKKRLRQENENLARRLESSSQEVARLRRGQC | 4.9 | – | – | – | – |
| myocilin coiled-coil construct CC_(69-184) (domain or fragment, human, UniProt Q99972 69-184, looked up) SVIHNLQRDSSTQRLDLEATKARLSSLESLLHQLTLDQAARPQETQEGLQRELGTLRRERDQLETQTRELETAYSNLLRDKSVLEEEKKRLRQENENLARRLESSSQEVARLRRGQ | – | – | – | 4 | – |
| myocilin N-terminal domain construct NTD_(33-226), wild type (domain or fragment, human, UniProt Q99972 33-226, looked up) RTAQLRKANDQSGRCQYTFSVASPNESSCPEQSQAMSVIHNLQRDSSTQRLDLEATKARLSSLESLLHQLTLDQAARPQETQEGLQRELGTLRRERDQLETQTRELETAYSNLLRDKSVLEEEKKRLRQENENLARRLESSSQEVARLRRGQCPQTRDTARAVPPGSREVSTWNLDTLAFQELKSELTEVPASR | – | ~8 | 2 and 4 | – | – |
| NTD_(33-226) (C47S/C61S/C185S) (domain or fragment, human, UniProt Q99972 33-226, looked up) RTAQLRKANDQSGRSQYTFSVASPNESSSPEQSQAMSVIHNLQRDSSTQRLDLEATKARLSSLESLLHQLTLDQAARPQETQEGLQRELGTLRRERDQLETQTRELETAYSNLLRDKSVLEEEKKRLRQENENLARRLESSSQEVARLRRGQSPQTRDTARAVPPGSREVSTWNLDTLAFQELKSELTEVPASR | – | – | – | – | binds |
| myocilin coiled-coil construct CC_(112-185) (domain or fragment, human, UniProt Q99972 112-185, looked up) ETQEGLQRELGTLRRERDQLETQTRELETAYSNLLRDKSVLEEEKKRLRQENENLARRLESSSQEVARLRRGQC | 2.4 | – | – | 2 | – |

Source: PMC5685557 (Structure (London, England : 1993), 2017)
